According to the array DNA melting data of Ke et al.:

Experiment: melting temperature; melt of duplexes
Settings: sodium 0.0675 M; strand 1 µM

**Q.** With “CGACGTGCTCTATGTGCTG+CAGCACATTAAGCACGTCG (((((((((..((((((((+))))))))..)))))))))” as the substance, how does the Tm read?
**A.** 51.1 °C

**Q.** Which Tm does the source give for “CGACGTGCGACATGTGCTG+CAGCACATTTAGCACGTCG ((((((((.(.((((((((+)))))))).).))))))))” here?
**A.** 52.2 °C

**Q.** With “CGACGTGCCGCATGTGCTG+CAGCACATTCGGCACGTCG ((((((((((.((((((((+)))))))).))))))))))” as the substance, how does the Tm read?
**A.** 59.1 °C

**Q.** With “CGACGTGCCTGATGTGCTG+CAGCACATATCGCACGTCG ((((((((...((((((((+))))))))...))))))))” as the substance, how does the Tm read?
**A.** 47.7 °C

**Q.** Which Tm does the source give for “CGACGTGCCTTATGTGCTG+CAGCACATTAAGCACGTCG ((((((((.(.((((((((+)))))))).).))))))))” here?
**A.** 49.8 °C

**Q.** With “CGACGTGCCGAATGTGCTG+CAGCACATACAGCACGTCG ((((((((.(.((((((((+)))))))).).))))))))” as the substance, how does the Tm read?
**A.** 50.4 °C

**Q.** Which Tm does the source give for “CGACGTGCCACATGTGCTG+CAGCACATGGTGCACGTCG ((((((((..(((((((((+)))))))))..))))))))” here?
**A.** 53.2 °C

**Q.** With “CGACGTGCGTAATGTGCTG+CAGCACATTACGCACGTCG (((((((((((((((((((+)))))))))))))))))))” as the substance, how does the Tm read?
**A.** 63.9 °C

**Q.** Which Tm does the source give for “CGACGTGCGAAATGTGCTG+CAGCACATCAAGCACGTCG ((((((((...((((((((+))))))))...))))))))” here?
**A.** 52.3 °C

**Q.** Which Tm does the source give for “CGACGTGCTGAATGTGCTG+CAGCACATCGTGCACGTCG ((((((((...((((((((+))))))))...))))))))” here?
**A.** 46.3 °C

**Q.** With “CGACGTGCTTAATGTGCTG+CAGCACATGGTGCACGTCG ((((((((...((((((((+))))))))...))))))))” as the substance, how does the Tm read?
**A.** 50.3 °C

**Q.** For “CGACGTGCCAGATGTGCTG+CAGCACATCTCGCACGTCG ((((((((.((((((((((+)))))))))).))))))))”, which Tm is on record?
**A.** 55.9 °C

**Q.** Which Tm does the source give for “CGACGTGCTACATGTGCTG+CAGCACATAGAGCACGTCG (((((((((..((((((((+))))))))..)))))))))” here?
**A.** 52.5 °C

**Q.** Which Tm does the source give for “CGACGTGCGGGATGTGCTG+CAGCACATGCGGCACGTCG ((((((((.(.((((((((+)))))))).).))))))))” here?
**A.** 55.4 °C

**Q.** For “CGACGTGCCCCATGTGCTG+CAGCACATATTGCACGTCG ((((((((...((((((((+))))))))...))))))))”, which Tm is on record?
**A.** 46.1 °C

**Q.** For “CGACGTGCATAATGTGCTG+CAGCACATTAGGCACGTCG ((((((((.((((((((((+)))))))))).))))))))”, which Tm is on record?
**A.** 57.7 °C

**Q.** Which Tm does the source give for “CGACGTGCGAGATGTGCTG+CAGCACATTTGGCACGTCG ((((((((.(.((((((((+)))))))).).))))))))” here?
**A.** 52.5 °C

**Q.** For “CGACGTGCTAGATGTGCTG+CAGCACATCCGGCACGTCG ((((((((..(((((((((+)))))))))..))))))))”, which Tm is on record?
**A.** 55.4 °C

**Q.** Which Tm does the source give for “CGACGTGCCCCATGTGCTG+CAGCACATTTCGCACGTCG ((((((((...((((((((+))))))))...))))))))” here?
**A.** 46 °C

**Q.** For “CGACGTGCAAGATGTGCTG+CAGCACATTTTGCACGTCG ((((((((((.((((((((+)))))))).))))))))))”, which Tm is on record?
**A.** 57.3 °C

**Q.** With “CGACGTGCCTAATGTGCTG+CAGCACATCTTGCACGTCG ((((((((...((((((((+))))))))...))))))))” as the substance, how does the Tm read?
**A.** 48 °C

**Q.** Which Tm does the source give for “CGACGTGCCCGATGTGCTG+CAGCACATCTCGCACGTCG ((((((((..(((((((((+)))))))))..))))))))” here?
**A.** 51.6 °C

**Q.** Which Tm does the source give for “CGACGTGCCGCATGTGCTG+CAGCACATCGTGCACGTCG ((((((((...((((((((+))))))))...))))))))” here?
**A.** 50.5 °C

**Q.** With “CGACGTGCAAGATGTGCTG+CAGCACATGTCGCACGTCG ((((((((.(.((((((((+)))))))).).))))))))” as the substance, how does the Tm read?
**A.** 51.3 °C

**Q.** With “CGACGTGCTATATGTGCTG+CAGCACATTTAGCACGTCG ((((((((((.((((((((+)))))))).))))))))))” as the substance, how does the Tm read?
**A.** 55.3 °C

**Q.** For “CGACGTGCCTTATGTGCTG+CAGCACATTAGGCACGTCG ((((((((((.((((((((+)))))))).))))))))))”, which Tm is on record?
**A.** 58 °C

**Q.** Which Tm does the source give for “CGACGTGCTGCATGTGCTG+CAGCACATGTTGCACGTCG ((((((((..(((((((((+)))))))))..))))))))” here?
**A.** 56.4 °C

**Q.** Which Tm does the source give for “CGACGTGCCCCATGTGCTG+CAGCACATTAGGCACGTCG (((((((((..((((((((+))))))))..)))))))))” here?
**A.** 52.5 °C
